The series concerns the target HER2 (GST-tagged, human) (human, UniProt P04626 676-1255). The series is described as follows: electrochemical aptasensor (cyclic voltammetry); Ag NR@PEI-Ag nanohybrid label cast after HER2; LOD 10 pg (not a Kd); Aptamer 0.25 uM loaded on Au electrode; HER2 cast and dried under infrared lamp, PBS wash; CV in 0.1 M PBS pH 7, 100 mV/s; temperature not stated. The note with it: protein: commercial; tags: GST.

B1: HER2 aptamer (ssDNA)
DNA: GGGCCGTCGAACACGAGCATGGTGCGTGGACCTAGGATGACCTGAGTACTGTCC
modifications: 5'-thiol (SH)
B1: the binding result is listed as “binds”.

For the origin of these results see article PMC10709618, “Ag nanorod@PEI-Ag nanohybrid as an excellent signal label for sensitive and rapid detection of serum HER2”.
